From the supplement of paper PMC10567573

B1: PBXIP1 (parent)
chain: LPVETLGPASRMDPESERALQAPH
B2: MYOZ1 (parent)
chain: FSDSSMDHFQKFLPTVGGQLGTAG

Variants of: B1
Test: protein stability index of a GFP-peptide fusion (GPS, HEK-293T) (PSI 1-6); higher = more stable
Conditions: c terminus: a fixed tail appended
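Also: lentivirally expressed fusions sorted by FACS into six bins by GFP to DsRed ratio, PSI derived from sequencing read proportions per bin multiplied by bin number.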

Protein stability index, by site and new letter:
P23: K 4.57; M 4.16; Q 4.06; E 4.8; S 4.78
T5: H 4.72; P 4.95; S 4.68; L 3.9
P8: M 4.16; T 5.31; D 5.46; Q 5.1
E15: L 4.03; T 4.02; M 3.48; S 3.81; Y 3.95; A 4.35; H 4.13
L6: M 5.3; C 4.55; K 5.03; T 5.37
P14: W 3.81; Q 4.75; H 3.61; F 4.32; A 4.62; S 4.09; M 4.04
D13: L 3.75; Y 3.73; M 4.11
G7: Y 4.63; W 4.63; L 5.23; T 5.37; S 5.42; N 5.24
P2: N 4.6; D 5; V 3.33; T 4.36; F 3.42; R 4.05; I 3.21; W 1.53
S10: H 4.2; T 4.78; Y 3.85; D 4.92; W 4.4; M 4.3
Q21: K 4.28; E 4.79; F 3.8; W 3.22; C 4.14; G 3.97
M12: S 4.11; K 5.34; P 4.35; R 4.33; C 4.32; F 4.15
E17: A 3.65; W 3.4; M 3.9; L 3.72; H 3.92
A9: H 4.91; Q 4.59; E 4.56; L 3.18; C 3.68; K 4.77
A22: I 4.23; L 3.98; M 3.68; E 4.68; Q 4.45; V 4.2
L1: P 5.09; M 4.43; G 5.38; Q 5.33
V3: S 4.83; P 5.25; R 4.27
L20: G 4.46; N 4.42; W 3.7; Y 4.14; H 4.27
S16: E 4.48; Q 4.53; L 2.83; A 4.16
A19: D 4.41; N 4.45; P 4.71
H24: K 4.5; I 3.72; Q 4.31; M 4.23; D 4.75
R18: K 4.6; L 3.69; Y 3.7; P 4.18; N 4.62
R11: K 4; C 4.63; L 3.66; V 4.66; Y 3.67
E4: Y 4.22; D 5.71; K 4.99; C 4.99; R 5.09; W 3.71; N 4.53; S 4.94

Variants of: B2
Test: as above
Conditions: c terminus: a fixed tail appended

Protein stability index: each site, then its substitutions
S2: Q 2.59; R 1.94; G 2.9; L 3.52; F 1.62; I 1.92; D 2.95; Y 1.83; M 2.63; N 2.23; P 2.54; E 2.81; H 1.5; A 1.77; C 1.5
D3: L 1.55; F 1.94; P 1.56; M 1.45; K 1.63; N 1.67; H 1.88; A 1.96; E 3.06; I 1.89
F1: R 3.41; T 3.51; K 3.77; A 3.62; H 3.88; P 3.6; I 2.92; C 2.26; W 2.56; V 3.56; L 3.11; Y 2.83; N 3.23; E 3.38; G 2.41; S 4.12; M 3.7
